Results as given in paper PMC9325753, “Chilling-induced phosphorylation of IPA1 by OsSAPK6 activates chilling tolerance responses in rice”.
Numbering of substitutions follows the chain as printed.

Target: T1, GST-IPA1 (Oryza sativa, UniProt Q7EXZ2 1-417)
T1 sequence: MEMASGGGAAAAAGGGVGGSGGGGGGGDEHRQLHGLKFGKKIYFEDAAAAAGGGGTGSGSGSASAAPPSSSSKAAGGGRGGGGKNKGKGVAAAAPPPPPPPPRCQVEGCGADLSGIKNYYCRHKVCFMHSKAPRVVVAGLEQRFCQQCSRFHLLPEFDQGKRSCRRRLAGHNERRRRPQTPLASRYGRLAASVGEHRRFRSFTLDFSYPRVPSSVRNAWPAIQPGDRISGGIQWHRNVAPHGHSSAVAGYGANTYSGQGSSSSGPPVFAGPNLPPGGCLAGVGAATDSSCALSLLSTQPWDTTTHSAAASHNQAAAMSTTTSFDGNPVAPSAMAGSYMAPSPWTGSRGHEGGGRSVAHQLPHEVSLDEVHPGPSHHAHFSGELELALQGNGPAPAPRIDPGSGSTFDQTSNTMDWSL
Test: EMSA; LightShift Chemiluminescent EMSA Kit (Thermo 20148) per manufacturer; buffer, salt, pH and temperature not stated
Conditions: protein: recombinant; tags: N-terminal GST (pGEX-4t-1); label: 5'-biotin on strand 1; blunt

B1: Biotin-P2 (OsCBF3 promoter) (dsDNA)
DNA 1: TACCTAGGTTTTAAGTTATAGTACTTACAATTTTTTGATGAG
DNA 2: CTCATCAAAAAATTGTAAGTACTATAACTTAAAACCTAGGTA
- binding result: binds

B2: Biotin-P2-m (GTAC to ATAC) (dsDNA)
DNA 1: B1 DNA 1 with G21A
DNA 2: B1 DNA 2 with C22T
- binding result: no binding
